Experimental data taken from publication PMC6548965.
pKd: −log10 of the molar value.

Biological target: AP heterodimer (IAP/PLAP) on LoVo cells (human) (UniProt P09923+P05187)
Experiment: flow cytometry
Conditions: 4 C, apparent Kd, PBS pH 7.4 (about 137 mM NaCl) with 5 mM MgCl2, 4.5 g/L glucose, 1 mg/mL BSA, 0.1 mg/mL herring sperm DNA, 30 min at 4 C

AP heterodimer (IAP/PLAP) on LoVo cells (human), sequence (P09923 20-503, chain 1 of 2): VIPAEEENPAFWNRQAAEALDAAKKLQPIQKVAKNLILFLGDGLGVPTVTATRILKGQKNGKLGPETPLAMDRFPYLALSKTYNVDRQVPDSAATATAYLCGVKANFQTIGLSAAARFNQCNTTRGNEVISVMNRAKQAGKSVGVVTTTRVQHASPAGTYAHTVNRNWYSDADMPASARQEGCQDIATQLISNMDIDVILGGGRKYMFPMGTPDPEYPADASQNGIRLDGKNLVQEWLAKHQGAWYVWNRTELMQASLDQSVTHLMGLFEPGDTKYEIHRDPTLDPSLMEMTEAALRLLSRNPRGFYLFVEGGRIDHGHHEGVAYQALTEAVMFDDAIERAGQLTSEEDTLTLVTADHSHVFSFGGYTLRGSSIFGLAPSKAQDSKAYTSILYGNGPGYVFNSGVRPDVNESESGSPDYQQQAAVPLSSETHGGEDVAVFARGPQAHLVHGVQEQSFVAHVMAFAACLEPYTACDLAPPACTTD
AP heterodimer (IAP/PLAP) on LoVo cells (human), sequence (P05187 23-506, chain 2 of 2): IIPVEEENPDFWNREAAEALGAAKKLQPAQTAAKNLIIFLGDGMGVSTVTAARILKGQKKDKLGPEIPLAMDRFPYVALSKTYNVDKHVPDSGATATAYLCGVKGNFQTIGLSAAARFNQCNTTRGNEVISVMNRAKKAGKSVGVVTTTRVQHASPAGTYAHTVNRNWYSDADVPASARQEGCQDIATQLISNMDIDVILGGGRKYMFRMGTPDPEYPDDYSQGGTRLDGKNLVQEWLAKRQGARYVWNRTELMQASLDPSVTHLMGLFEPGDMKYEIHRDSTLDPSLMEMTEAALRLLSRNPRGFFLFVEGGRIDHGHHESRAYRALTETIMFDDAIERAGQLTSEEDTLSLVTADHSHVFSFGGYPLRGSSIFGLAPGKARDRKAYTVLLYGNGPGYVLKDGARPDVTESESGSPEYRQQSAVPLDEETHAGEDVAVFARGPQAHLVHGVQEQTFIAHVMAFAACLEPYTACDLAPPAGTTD

First: CAAGGAATAGGGGTCGGTGTGGGTGGTTATGATTGGCTTCCTTG [BG2]
Second: TAAAAAATAGGGGTCGGTGTGGGTGGTTATGATTGGCTTTTTTA [BG4]
The pKd of the first is 0.66 log units higher: 8.60 for the first, 7.94 for the second. The first binds more tightly here.

TAGGGGTCGGTGTGGGTGGTTATGATTGGC [BG2c] gave a pKd of 8.03.
